Measured values: paper PMC7840946 (Nature Communications, 2021)

Biological target: PstS1 (Rv0934), recombinant, wild type (Mycobacterium tuberculosis H37Rv, UniProt P9WGU1)
Experiment: SPR
Conditions: both partners purified

Chain of PstS1 (Rv0934), recombinant, wild type (P9WGU1 25-374): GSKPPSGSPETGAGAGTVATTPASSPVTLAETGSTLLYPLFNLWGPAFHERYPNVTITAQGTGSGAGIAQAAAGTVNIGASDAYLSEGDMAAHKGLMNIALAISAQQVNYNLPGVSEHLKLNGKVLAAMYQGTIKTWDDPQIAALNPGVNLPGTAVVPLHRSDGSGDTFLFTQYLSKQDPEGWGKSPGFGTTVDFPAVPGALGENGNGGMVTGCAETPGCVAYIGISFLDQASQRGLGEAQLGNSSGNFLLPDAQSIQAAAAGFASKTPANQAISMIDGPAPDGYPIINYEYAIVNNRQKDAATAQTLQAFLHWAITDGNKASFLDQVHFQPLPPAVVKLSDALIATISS

B1: p4-36gl, predicted germline version of mAb p4-36 (antibody, V domains shown)
VH: EVQLVESGGGLVQPGRSLRLSCTASGFTFGDYAMSWVRQAPGKGLEWVGFIRSKAYGGTTEYAASVKGRFTISRDDSKSIAYLQMNSLKTEDTAVYYCTGPRPYYDSSGYYPYYFDYWGQGTLVTVSS
VL: QSALTQPRSVSGSPGQSVTISCTGTSSDVGGYNYVSWYQQHPGKAPKLMIYDVSKRPSGVPDRFSGSKSGNTASLTISGLQAEDEADYYCCSYAGSYTYVVFGGGTKLTVL
notes: also called germline (gl) version of p4-36
fold reduction in affinity against the mature p4-36: 4.7 fold
